{"source": "patent US20200362323", "experiment_in_all_cases": "cell_activity", "key": {"[1]": {"tested_on": "mouse TRB1-TALEN right (artificial (Xanthomonas TALE-FokI)?)", "settings": "SSA reporter assay in HEK293T, pair with left TALEN; site given as top strand"}, "[2]": {"tested_on": "mouse TRA2-TALEN right (artificial (Xanthomonas TALE-FokI)?)", "settings": "SSA reporter assay in HEK293T, pair with left TALEN; site given as top strand"}, "[3]": {"tested_on": "mouse TRB2-TALEN right (artificial (Xanthomonas TALE-FokI)?)", "settings": "SSA reporter assay in HEK293T, pair with left TALEN; site given as top strand"}, "[4]": {"tested_on": "mouse TRA2-TALEN left (artificial (Xanthomonas TALE-FokI)?)", "settings": "SSA reporter assay in HEK293T, pair with right TALEN"}, "[5]": {"tested_on": "mouse TRB1-TALEN left (artificial (Xanthomonas TALE-FokI)?)", "settings": "SSA reporter assay in HEK293T, pair with right TALEN"}, "[6]": {"tested_on": "mouse TRB2-TALEN left (artificial (Xanthomonas TALE-FokI)?)", "settings": "SSA reporter assay in HEK293T, pair with right TALEN"}}}
{"sequence": "AAAAGCAGAGATTGCAAACA (double strand) [mouse TRB1 right target]", "values": [{"measurement": "activity (fold vs ZFA36)", "setting": "[1]", "result": 3.79}]}
{"sequence": "AATGTGCCGAAAACCATGGA (double strand) [mouse TRA2 right target]", "values": [{"measurement": "activity (fold vs ZFA36)", "setting": "[2]", "result": 3.09}]}
{"sequence": "GGAGCTGAGCTGGTGGGTGA (double strand) [mouse TRB2 right target]", "values": [{"measurement": "activity (fold vs ZFA36)", "setting": "[3]", "result": 3.41}]}
{"sequence": "TCTGCCTGTTCACCGACT (double strand) [mouse TRA2 left target]", "values": [{"measurement": "activity (fold vs ZFA36)", "setting": "[4]", "result": 3.09}]}
{"sequence": "TGACTCCACCCAAGGTCTCC (double strand) [mouse TRB1 left target]", "values": [{"measurement": "activity (fold vs ZFA36)", "setting": "[5]", "result": 3.79}]}
{"sequence": "TGTGCTTGGCCAGGGGCTTC (double strand) [mouse TRB2 left target]", "values": [{"measurement": "activity (fold vs ZFA36)", "setting": "[6]", "result": 3.41}]}
